Results reported in patent publication US20020077284A1 (WHITEHEAD INSTITUTE FOR BIOMEDICAL RESEARCH, published 2002).
Positions of bridges follow the written chain, without caps; N, C: chain ends. Non-standard residues stand in square brackets, D forms with d.

Legend:
[1] = molecular target: T1, HIV-1 envelope protein gp41 subunit (HXB2 envelope), N-helix coiled-coil (HIV-1 (HXB2), UniProt P04578 512-856); experiment: cell-based or functional assay
[2] = molecular target: T2, N36 peptide of HIV-1 gp41 (HIV-1); experiment: circular dichroism thermal melt at 222 nm; 10 µM C34 peptide + 10 µM N36 in PBS pH 7.0
T2 construct: Synthetic peptide; forms the trimeric N36 coiled-coil of the N36/C34 complex

[3] = molecular target: T1, HIV-1 envelope protein gp41 subunit …; experiment: cell-based or functional assay; remark: listed apart in the source
[4] = molecular target: T2, N36 peptide of HIV-1 gp41; experiment: circular dichroism thermal melt of the N36/C34 variant complex

B1: D10pep1a (peptide)
peptide: Ac-[dK][dK]G[dA][dC][dE][dA][dR][dH][dR][dE][dW][dA][dW][dL][dC][dA][dA]-NH2
modifications: disulfide 5-16 (inferred)
- IC50 for inhibition of syncytia formation, against D10pep1 [1]: ~2 fold

B2: C34 peptide Arg^633→Ala (peptide)
peptide: Ac-WMEWDAEINNYTSLIHSLIEESQNQQEKNEQELL-NH2
notes: Position in gp41 numbering
- Tm (apparent melting temperature of the N36/C34 complex) [2]: 65 ° C.
- IC50 (nM) cell fusion [3]: 0.76 nM
- IC50 (nM) viral entry [3]: 2.6 nM

B3: C34 peptide Trp^631→Val (peptide)
peptide: Ac-WMEVDREINNYTSLIHSLIEESQNQQEKNEQELL-NH2
- IC50 values (nanomolar) for cell fusion [1]: 4.5 nM
- IC50 values (nanomolar) for virus entry [1]: 13 nM
- Tm (apparent melting temperature of the N36/C34 complex) [4]: 43 ° C.

B4: C34 peptide Trp^631→Phe (peptide)
peptide: Ac-WMEFDREINNYTSLIHSLIEESQNQQEKNEQELL-NH2
- IC50 values (nanomolar) for cell fusion [1]: 1.6 nM
- IC50 values (nanomolar) for virus entry [1]: 3.61 nM
- Tm (apparent melting temperature of the N36/C34 complex) [4]: 59 ° C.

B5: C34 peptide Trp^631→Gly (peptide)
peptide: Ac-WMEGDREINNYTSLIHSLIEESQNQQEKNEQELL-NH2
notes: Position in gp41 numbering
- IC50 values (nanomolar) for cell fusion [1]: 25 nM
- IC50 values (nanomolar) for virus entry [1]: 38 nM
- Tm (apparent melting temperature of the N36/C34 complex) [4]: 35 ° C.

B6: C34 peptide Trp^631→Ala (peptide)
peptide: Ac-WMEADREINNYTSLIHSLIEESQNQQEKNEQELL-NH2
notes: Position in gp41 numbering
- Tm (apparent melting temperature of the N36/C34 complex) [2]: 37 ° C.
- decrease in inhibitory activity against wildtype C34 [1]: ~30 fold

B7: C34 peptide Ile^635→Ala (peptide)
peptide: Ac-WMEWDREANNYTSLIHSLIEESQNQQEKNEQELL-NH2
notes: Position in gp41 numbering
- Tm (apparent melting temperature of the N36/C34 complex) [2]: 55 ° C.
- decrease in inhibitory activity against wildtype C34 [1]: ~2 fold
- IC50 (nM) cell fusion [3]: 0.96 nM
- IC50 (nM) viral entry [3]: 4.1 nM

B8: C34 peptide Trp^631→Leu (peptide)
peptide: Ac-WMELDREINNYTSLIHSLIEESQNQQEKNEQELL-NH2
- IC50 values (nanomolar) for cell fusion [1]: 3.2 nM
- IC50 values (nanomolar) for virus entry [1]: 5.3 nM
- Tm (apparent melting temperature of the N36/C34 complex) [4]: 50 ° C.

B9: D10pep5a (peptide)
peptide: Ac-[dK][dK][dK][dK]G[dA][dC][dE][dL][dL]G[dW][dE][dW][dA][dW][dL][dC][dA][dA]-NH2
modifications: disulfide 7-18 (inferred)
- IC50 for inhibition of syncytia formation, against D10pep5 [1]: ~2 fold

B10: D10pep5 (peptide)
peptide: Ac-[dK][dK]G[dA][dC][dE][dL][dL]G[dW][dE][dW][dA][dW][dL][dC][dA][dA]-NH2
modifications: disulfide 5-16 (inferred)
- IC50, syncytia assay [1]: ~6000 nM
